Data reported in US20210101970A1 (Pfizer, published 2021).

How the values were obtained:
human CXCR5 [1] = biological target: T1, human CXCR5 (human, UniProt P32302 1-372); assay: cell-based or functional assay
T1 sequence: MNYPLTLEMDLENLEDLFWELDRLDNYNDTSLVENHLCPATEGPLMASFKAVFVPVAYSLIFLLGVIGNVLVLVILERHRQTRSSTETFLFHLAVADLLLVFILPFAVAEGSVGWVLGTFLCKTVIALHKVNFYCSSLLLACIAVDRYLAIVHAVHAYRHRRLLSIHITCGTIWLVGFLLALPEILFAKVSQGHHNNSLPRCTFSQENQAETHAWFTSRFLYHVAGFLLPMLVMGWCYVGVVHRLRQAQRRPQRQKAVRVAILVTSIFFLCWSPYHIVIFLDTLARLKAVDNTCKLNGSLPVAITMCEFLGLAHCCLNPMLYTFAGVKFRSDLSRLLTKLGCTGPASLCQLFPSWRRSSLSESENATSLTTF

human CXCR5 [2] = biological target: T1, human CXCR5; assay: flow cytometry, human PBMC B cells
human CXCR5 [3] = biological target: T1, human CXCR5; assay: flow cytometry, human PBMC Tfh-like cells
Experimental: The apparent affinity for cell surface CXCR5 of chimeric and humanized CXCR5 fucosylated and afucosylated antibodies was assessed. More specifically, to determine the apparent affinity of chimeric and humanized CXCR5 antibodies to CXCR5-expressing cells, cell binding experiments were performed on human and cynomolgus monkey peripheral blood mononuclear cells (PBMCs) and human tonsillar mononuclear cells (TMCs). The apparent affinity of CXCR5 mab binding to CXCR5+ cells (B cells, bona fide Tfh cells, and circulating Tfh-like cells) was calculated as the EC50 of equilibrium binding titration curves in which the geometric mean fluorescence intensity (gMFI) of the antigen binding population was quantified by flow cytometry.
Following isolation, PBMCs were plated at a density of 1.0×10⁵ cells per well and CD4+ TMCs were plated at a density of 2.0×10⁵ cells per well in isolation buffer (PBS containing 1% FBS and 1 mM EDTA) in 96 well U-bottom plates. The plates were then centrifuged at 1500 rpm for 5 minutes at room temperature. PBMCs and CD4+ TMCs were resuspended in Fluorescence-activated cell sorting (FACS) buffer (PBS containing 1% FBS) containing human crystallized fragment Fc block (2 μL per well; Biolegend) and 4-fold serial dilutions of the antibodies (11-point dilution series, beginning at 5000 ng/mL for PBMCs and 312.5 ng/mL for CD4+ TMCs) and incubated on ice for 2 hours. […]

human CXCR5 [4] = biological target: T1, human CXCR5; assay: flow cytometry, B cells from human PBMCs (FIG. 5); afucosylated
human CXCR5 [5] = biological target: T1, human CXCR5; assay: cell-based or functional assay; remark: listed apart in the source
human CXCR5 [6] = biological target: T1, human CXCR5; assay: cell-based or functional assay; remark: listed apart in the source
human CXCR5 [7] = biological target: T1, human CXCR5; assay: cell-based or functional assay; remark: listed apart in the source
cynomolgus monkey CXCR5 = biological target: T2, cynomolgus monkey CXCR5 (cynomolgus monkey, UniProt P32302 1-372 (human entry)); assay: flow cytometry on cynoCXCR5-300.19 cells
T2 construct: also called cynoCXCR5; NHP CXCR5
T2 chain: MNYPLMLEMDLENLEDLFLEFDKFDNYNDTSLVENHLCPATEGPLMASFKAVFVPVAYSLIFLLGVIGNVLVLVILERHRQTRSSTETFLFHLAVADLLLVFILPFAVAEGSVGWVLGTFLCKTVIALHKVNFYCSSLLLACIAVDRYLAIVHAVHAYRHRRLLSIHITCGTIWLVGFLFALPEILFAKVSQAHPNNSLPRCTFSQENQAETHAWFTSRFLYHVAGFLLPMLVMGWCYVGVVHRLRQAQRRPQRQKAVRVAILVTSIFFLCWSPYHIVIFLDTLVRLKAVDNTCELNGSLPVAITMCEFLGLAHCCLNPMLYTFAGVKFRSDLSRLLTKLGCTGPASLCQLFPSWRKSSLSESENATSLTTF

CXCR2 = biological target: T3, CXCR2 (human, UniProt P25025 1-360); assay: flow cytometry (GMFI) on fixed CXCR2 cells, chimeric antibody, goat anti-human PE
T3 construct: whole, on cells
T3 sequence (looked up): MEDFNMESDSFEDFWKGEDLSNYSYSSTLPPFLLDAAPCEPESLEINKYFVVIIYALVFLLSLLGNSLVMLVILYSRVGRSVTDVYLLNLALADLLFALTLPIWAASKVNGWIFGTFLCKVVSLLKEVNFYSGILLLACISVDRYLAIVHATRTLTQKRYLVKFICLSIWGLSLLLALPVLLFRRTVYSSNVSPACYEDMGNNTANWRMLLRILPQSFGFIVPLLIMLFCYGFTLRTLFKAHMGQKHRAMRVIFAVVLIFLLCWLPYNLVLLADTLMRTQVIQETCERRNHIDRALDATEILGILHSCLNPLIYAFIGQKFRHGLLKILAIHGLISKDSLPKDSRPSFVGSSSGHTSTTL
Experimental: To determine the specificity of the antibodies for CXCR5, the binding of the antibodies to cells expressing other […] was assessed. Briefly, FlowCellect chemokine receptor cell lines expressing CXCR1, CXCR2, or CXCR3 (EMD Millipore, Billerica, Mass.), and Jurkats (ATCC, Manassas, Va.), which express CXCR4, were stained with 5 μg/ml or 10 μg/ml of each anti-CXCR5 chimeric antibody. The cells were then incubated with goat anti-human conjugated with PE (Southern Biotech, Birmingham, Ala.) prior to analysis by flow cytometry using a FACSVerse Analyzer (BD Biosciences, Franklin Lakes, N.J.).

B1: Afucosyl humanized 11G2 154/155 (antibody, human IgG1, kappa, V domains shown)
VH: EVQLVESGGGLVQPGGSLRLSCAASGFTFTDFYMSWVRQAPGKGLEWVGFIRNKANGYTTEYSASVKGRFTISRDNAKNSLYLQMNSLRAEDTAVYYCARVYGSTLHYWGQGTLVTVSS
VL: DIQMTQSPSSLSASVGDRVTITCRASESVEYHGTSLMHWYQQKPGKAPKLLIYAASNVESGVPSRFSGSGSGTDFTLTISSLQPEDFATYYCQQSRKVPWTFGQGTKVEIKR
modifications: afucosylated Fc glycan (Asn297)
notes: also called afucosyl h11G2 XC154/XC155; afucosylated h11G2 VL XC154/VH XC155
ADCC (EC50, pM) (human CXCR5 [1]): 2.38 pM | fold higher affinity than 2C9 (human CXCR5 [2]): ~10 fold | fold higher affinity than 11A7 (human CXCR5 [2]): ~100 fold | EC50 (human CXCR5 [3]): 0.00589 nM | EC50 (human CXCR5 [4]): 0.0119 nM | EC50, functional antagonism (cAMP assay) (human CXCR5 [5]): 0.961 nM

B2: 2C9 (reference antibody) (antibody, human IgG1, kappa, V domains shown)
VH: EVQLVESGGGLVKPGGSLRLSCAASGFTFSTNAMNWVRQAPGKGLERVARIRSKSNNYATYYADSVKDRFTISRDDSKNTLYLQMNSLKTEDTAVYYCVTMIPFAYWGQGTLVTVSS
VL: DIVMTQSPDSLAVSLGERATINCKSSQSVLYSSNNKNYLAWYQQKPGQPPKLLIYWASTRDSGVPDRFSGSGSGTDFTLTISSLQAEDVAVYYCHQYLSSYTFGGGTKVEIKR
notes: fucosylated
% Inhibition CXCL13 (human CXCR5 [6]): 114% | EC50, stimulation of CXCL13-inhibited cAMP production (human CXCR5 [6]): 0.793 nM | Ca2+ flux IC50 (human CXCR5 [7]): 3.49 nM | EC50 (cynomolgus monkey CXCR5): 0.131 nM

B3: Chimeric 11G2 (antibody, human IgG1, kappa, V domains shown)
VH: EVKLVESGGGLVQPGGSLRLSCATSGFTFTDFYMSWVRQPPGRALEWLGFIRNKANGYTTEYSASVKGRFTISRDNSQSILYLQMNTLRAGDSATYYCVRVYGSTLHYWGQGTILTVSS
VL: DVVVTQSPDSLAVSLGQRATISCRASESVEYHGTSLMHWYQQKPGQPPKLLIYAASNVESGVPARFSGSGSGTDFSLNIHPVEEGDIAMYFCQQSRKVPWTFGGGTKLEIKR
notes: mouse V regions on human IgG1/kappa; also called 11G2 (chimeric)
binding result (CXCR2): no binding (tested: 5 or 10 µg/ml (not on the sheet))
